# Laboratory results as given in article PMC6742479 (Molecular cell, 2015).
# T1: GST-scKap104 (S. cerevisiae, UniProt P38217 1-918)
# T1 sequence (looked up): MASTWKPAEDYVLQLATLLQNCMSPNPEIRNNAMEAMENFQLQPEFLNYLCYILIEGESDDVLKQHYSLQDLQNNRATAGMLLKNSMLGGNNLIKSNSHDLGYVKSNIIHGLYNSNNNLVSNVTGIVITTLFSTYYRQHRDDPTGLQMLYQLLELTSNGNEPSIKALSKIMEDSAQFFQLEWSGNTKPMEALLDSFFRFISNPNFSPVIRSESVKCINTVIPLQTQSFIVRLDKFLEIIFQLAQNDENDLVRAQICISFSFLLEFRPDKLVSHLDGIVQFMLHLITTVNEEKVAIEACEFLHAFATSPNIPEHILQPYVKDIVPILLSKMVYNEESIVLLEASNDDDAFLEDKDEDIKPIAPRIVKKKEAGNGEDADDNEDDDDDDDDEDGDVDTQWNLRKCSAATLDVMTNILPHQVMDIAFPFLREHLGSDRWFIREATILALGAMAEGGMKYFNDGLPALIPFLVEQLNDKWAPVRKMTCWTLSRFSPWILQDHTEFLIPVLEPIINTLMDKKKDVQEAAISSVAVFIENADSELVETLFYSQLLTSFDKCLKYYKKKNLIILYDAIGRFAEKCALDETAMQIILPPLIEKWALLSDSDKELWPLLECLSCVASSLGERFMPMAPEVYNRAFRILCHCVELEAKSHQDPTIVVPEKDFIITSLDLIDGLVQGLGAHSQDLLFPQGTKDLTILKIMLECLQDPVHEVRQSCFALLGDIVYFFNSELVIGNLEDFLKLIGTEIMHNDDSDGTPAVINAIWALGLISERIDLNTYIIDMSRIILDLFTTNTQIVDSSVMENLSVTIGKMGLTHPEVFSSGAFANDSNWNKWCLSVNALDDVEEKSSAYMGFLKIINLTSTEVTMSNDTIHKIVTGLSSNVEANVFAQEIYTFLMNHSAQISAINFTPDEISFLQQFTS
# Biological target: T1, GST-scKap104
# Assay: pull-down
row,binding result,Binder
1,binds,His6-scAcl4•scRpL4 (complex) chain 1: MSELEATIRQAKEALAENNAKKALKILKPFKSSLKKENANNVILNEVFADAYLDNGQVEKAYPILARACELDPEGQVGGPDKFFTMGQIMGGQDGVSIITRGIMNISNTGGEMLTNVQVEKIVGGLLSVIEIWMTDLCMEPNAEEQCEELIQKAMELTEGKSPETWSTLGSIKISQQKFGEAYEAFSQAWNFFELKKQEIGSGINENGDTTQKAGLQSEYVDLLQPLLSLTKMCLEVGAYEVALKVIAAVRDIDEDNIEGYYLEGFTYYLMSKLEIFKLNNPEVSLRPENIYEFNQLIQEVPLDLSHEPISQLIYDSRLALSFALQAGVNADSKDEIVQELLGGANALLQEIGGPLDPSELTQIKKGDLVNENEDLEELDIEEEYSD chain 2: not shown
2,binds,scRpL4 (natural protein) not shown
